T1: Biotinylated CD96 antigen (human, UniProt P40200-2 22-503, limits assumed, biotinylated)
T1 sequence (looked up): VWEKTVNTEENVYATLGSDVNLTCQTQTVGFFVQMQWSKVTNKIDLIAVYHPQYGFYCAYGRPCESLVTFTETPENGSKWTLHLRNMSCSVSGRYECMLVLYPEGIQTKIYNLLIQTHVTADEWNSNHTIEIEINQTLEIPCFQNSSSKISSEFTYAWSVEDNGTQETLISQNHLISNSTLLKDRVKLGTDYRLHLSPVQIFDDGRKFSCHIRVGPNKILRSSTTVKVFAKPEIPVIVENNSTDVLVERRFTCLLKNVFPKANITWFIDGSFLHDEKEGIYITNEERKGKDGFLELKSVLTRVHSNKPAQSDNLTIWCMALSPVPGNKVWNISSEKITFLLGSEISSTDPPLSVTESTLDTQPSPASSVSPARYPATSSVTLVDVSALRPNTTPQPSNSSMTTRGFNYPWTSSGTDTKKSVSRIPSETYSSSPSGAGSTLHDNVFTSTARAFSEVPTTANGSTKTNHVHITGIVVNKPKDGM


What was measured:
[1] = molecular target: T1, Biotinylated CD96 antigen; test: competition ELISA: antibody B pre-incubated with biotinylated CD96 antigen, added to a plate coated with antibody A, HRP-streptavidin, OD450; competitor: coated h1718-012
Experimental: (§1) Competitive assays of different antibodies binding to CD96 protein were used to classify binding epitopes of the antibodies. The specific experimental methods are as follows:
(§2) Antibody A was diluted to a concentration of 2 μg/ml with PBS buffer (Shanghai Yuanpei Biotechnology Co., Ltd. Cat No. B320), pH 7.4, added to a 96-well microtiter plate (Corning, Cat No. CLS3590-100EA) at a volume of 50 μl/well, and coated at 4° C. overnight. After discarding the liquid, 250 μl/well of 5% skim milk (BD skim milk, Cat No. 232100) blocking solution diluted with PBS was added, and the plate was incubated at 37° C. for 3 hours. After blocking, the blocking solution was discarded, and the plate was washed 5 times with PBST buffer (pH 7.4 PBS containing 0.05% tween-20) and stored for later use. Antibody B was diluted to 40 μg/ml and 8 μg/ml with 1% BSA, and Biotinylated CD96 antigen was simultaneously diluted to 4 μg/mL. Subsequently, antibody B and antigen were mixed in a 1:1 volume ratio, pre-incubated at 37° C. for 45 minutes, added into the enzyme plate coated with antibody A, thus incubating the plate in an incubator at 37° C. for 1.5 hours. […] The absorption value was read at 450 nm with a NOVOStar microplate reader, and the OD value was used to determine whether A and B CD96 antibodies compete with each other. […]

[2] = molecular target: T1, Biotinylated CD96 antigen; test: competition ELISA: antibody B pre-incubated with biotinylated CD96 antigen, added to a plate coated with antibody A, HRP-streptavidin, OD450; competitor: coated h1722-010
Experimental: as §1, §2

| IC50 (read off the curve) [1] | IC50 (read off the curve) [2] | Binder |
| --- | --- | --- |
| ~0.6 nM |  | h1719-010 (antibody, V domains shown, Only variable regions are tied to this name) VH: EVTLKESGPVLVKPTETLTLTCTVSGFSLSSYGVSWVRQPPGKGLEWLGVIWGDGNTNYHSVLISRLTISKDTSKSQVVLTLTNMDPVDTATYYCAKQNYYGSRYGYPIDYWGQGTTVTVSS VL: DIQMTQSPSSVSASVGDRVTITCKATQDVGTAVAWYQQKPGKAPKLLIYWASTRHTGVPSRFSGSGSGTDFTLTISSLQPEDFATYYCQQYGSSVLTFGGGTKVEIK |
|  | ~0.5 nM | h1722-010 (antibody, V domains shown, Only variable regions are tied to this name; also called M722-010) VH: EVQLVQSGAEVKKPGSSVKVSCKASGGTFSDYWMHWVRQAPGQGLEWIGMLHPNSGTTSFNEKFKIRVTITADKSTSTAYMELSSLRSEDTAVYYCASDYSGPFAYWGQGTLVTVSS VL: DIQLTQSPSSLSASVGDRVTITCSASSSVNYIHWYQQKPGKAPKRWIFDTSKLASGVPSRFSGSGSGTDYTLTISSLQPEDFATYYCQQWRSNPLTFGQGTKLEIK |

— US20200347130A1 (JIANGSU HENGRUI MEDICINE, published 2020)
